Series [1] deals with 293T cells. Description: Luciferase assay: tetracycline-induced transgene expression (induction in fold) from polyA aptamer constructs. The class given is cell-based, human.
Method: Cells were seeded in 96-well plates at a density of 25000-30000 cells/well. After 24 hours of incubation, each well was transfected with 50 ng of DNA vectors and were incubated with culture medium containing none or various concentration of tetracycline for an additional 18 hours. Luciferase activity was measured in relative light units (RLU) with a Polarstar Omega plate reader (BMG Labtech, USA). To make 36 mL of assay buffer, 144 μL 1M DTT, 108 μL M ATP, 252 μL 0.1M luciferin and 360 μl 0.05M CoA were added to 35 mL of basic buffer (25 mM Tricine, 0.5 mM EDTA-Na2, 0.54 mM Na-triphosphate, 16.3 mM MgSO4.7H2O, and 0.8% Triton X-100). After the cell medium was removed, 40 μL of assay buffer was added to each well, and luciferase activity was read twice with the Polarstar Omega plate reader. Induction in fold is calculated as the ratio of transgene expression in the presence vs absence of tetracycline.
The subject of series [2] is alternative splicing. Description: RT-PCR of tetracycline-induced alternative splicing. The note with it: presence of Tc, compared to Y196CAA-2MAZ. The class given is cell-based. How it is done: Cells transfected with the respective constructs were grown 18 hours at 37° C. in medium in the absence or presence of tetracycline. Total RNA was isolated according to the protocol supplied with RiboPure™ RNA Purification Kit (Ambion, Austin, Tex.). For RT-PCR, RT was performed using SuperScript III (invitrogen, Carlsbad, Calif.) according to manufacturer's protocol and PCR was performed using the primers targeting the beginning of the transcript and reporter gene.

Numbering of substitutions follows the chain as printed.

B1: Y209: SEQ ID NO: 8; polyA switch construct (nucleic acid)
DNA: TCAGATCGCCTGGAGACGCCATCCACGCTGTTTTGACCTCCATAGAAGACACCGGGACCGATCCAGCCTCCCCTCGAAGCTGATCCTGAGAACTTCAGGGTGAGTCTATGGGACCCTTGATGTTTTCTTTCCCCTTCTTTTCTATGGTTAAGTTCATGTCATAGGAAGGGGAGAAGTAACAGGGTACACATATTGACCAAATCAGGGTAATTTTGCATTTGTAATTTTAAAAAATGCTTTCTTCTTTTAATATACTTTTTTGTTTATCTTATTTCTAATACTTTCCCTAATCTCTTTCTTTCAGGGCAATAATGATACAATGTATCATGCCTCTTTGCACCATTCTAAAGAATAACAGTGATAATTTCTGGGTTAAGGCAATAGCAATATTTCTGCATATAAATATTTCTGCATATAAATTGTAACTGATGTAAGAGGTTTCATATTGCTAATAGCAGCTACAATCCAGCTACCATTCTGCTTTTATTTTATGGTTGGGATAAGGCTGGATTATTCTGAGTCCAAGCTAGGCCCTTTTGCTAATCATGTTCATACCTCTTATCTTCCTCCCACAGCTCCTGGGCAACGTGCTGGTCTGTGTGCTGGCCCATCACTTTGGCAAAGAATTGGCTAGCCACACACACAAATCTGGGGAGGTGAAGAATACGACCACCTGCGTTTTATACTTCCGCGAGATCTGGGGAGGTGAAGAATACGACCACCTAATAAGATTACCGAAAGGCAATCTTATTAAAACATACCAGATCTTGCGAGGGTGTTTGTGGCAAAACATACCAGATCGAATTCGATCTGGGGAGGTGAAGAATACGACCACCTGCTACAAGTACCTAAATAAAGTATAAAGTGCAAAACATACCAGATCTGTGTGTTGGTTTTTTGTGTGTTAACGGGGGAGGGGGAGGAAAGGGGGAGGGGGAGGAAAGGGGGAGGGGGAGGAAAGGGGGAGGGGGAGCGGCCGCCAACAACAACAACAACAACAACAACAACAACAACAACAACATAACAGTGTTCACTAGCAACCTCAAACAGACACCATG
As to B1, the “effect on induction of inserting CAA repeats in the 5′UTR of the named construct” value (from here on “effect on induction”) in series [1] is on record as “higher induction”.

B2: Y211: SEQ ID NO: 9; polyA switch construct (nucleic acid)
DNA: B1 DNA with G691A, C771T
Take B2: the “effect on induction” value in series [1] is recorded as “higher induction”.

B3: Y196CAA-4MAZ: SEQ ID NO: 6; Y-shape polyA switch construct with 4MAZ (nucleic acid)
DNA: TCAGATCGCCTGGAGACGCCATCCACGCTGTTTTGACCTCCATAGAAGACACCGGGACCGATCCAGCCTCCCCTCGAAGCTGATCCTGAGAACTTCAGGGTGAGTCTATGGGACCCTTGATGTTTTCTTTCCCCTTCTTTTCTATGGTTAAGTTCATGTCATAGGAAGGGGAGAAGTAACAGGGTACACATATTGACCAAATCAGGGTAATTTTGCATTTGTAATTTTAAAAAATGCTTTCTTCTTTTAATATACTTTTTTGTTTATCTTATTTCTAATACTTTCCCTAATCTCTTTCTTTCAGGGCAATAATGATACAATGTATCATGCCTCTTTGCACCATTCTAAAGAATAACAGTGATAATTTCTGGGTTAAGGCAATAGCAATATTTCTGCATATAAATATTTCTGCATATAAATTGTAACTGATGTAAGAGGTTTCATATTGCTAATAGCAGCTACAATCCAGCTACCATTCTGCTTTTATTTTATGGTTGGGATAAGGCTGGATTATTCTGAGTCCAAGCTAGGCCCTTTTGCTAATCATGTTCATACCTCTTATCTTCCTCCCACAGCTCCTGGGCAACGTGCTGGTCTGTGTGCTGGCCCATCACTTTGGCAAAGAATTGGCTAGCCACACACACAAATCTGGGGAGGTGAAGAATACGACCACCTGCGTTTTATACTTCCACGAGATCTGGGGAGGTGAAGAATACGACCACCTAATAAGATTACCGAAAGGCAATCTTATTAAAACATACCAGATCTTGTGAGGGTGTTTGTGGCAAAACATACCAGATCGAATTCGATCTGGGGAGGTGAAGAATACGACCACCTGCTACAAGTACCTAATAAAGTATAAAGTGCAAAACATACCAGATCTGTGTGTTGGTTTTTTGTGTGTTAACGGGGGAGGGGGAGGAAAGGGGGAGGGGGAGGAAAGGGGGAGGGGGAGGAAAGGGGGAGGGGGAGCGGCCGCCAACAACAACAACAACAACAACAACAACAACAACAACAACATAACAGTGTTCACTAGCAACCTCAAACAGACACCATG
Regarding B3, the Tc-induced alternative splicing entry in series [2] was “far more pronounced”.

B4: Y208: SEQ ID NO: 7; polyA switch construct (nucleic acid)
DNA: TGGAGACGCCATCCACGCTGTTTTGACCTCCATAGAAGACACCGGGACCGATCCAGCCTCCCCTCGAAGCTGATCCTGAGAACTTCAGGGTGAGTCTATGGGACCCTTGATGTTTTCTTTCCCCTTCTTTTCTATGGTTAAGTTCATGTCATAGGAAGGGGAGAAGTAACAGGGTACACATATTGACCAAATCAGGGTAATTTTGCATTTGTAATTTTAAAAAATGCTTTCTTCTTTTAATATACTTTTTTGTTTATCTTATTTCTAATACTTTCCCTAATCTCTTTCTTTCAGGGCAATAATGATACAATGTATCATGCCTCTTTGCACCATTCTAAAGAATAACAGTGATAATTTCTGGGTTAAGGCAATAGCAATATTTCTGCATATAAATATTTCTGCATATAAATTGTAACTGATGTAAGAGGTTTCATATTGCTAATAGCAGCTACAATCCAGCTACCATTCTGCTTTTATTTTATGGTTGGGATAAGGCTGGATTATTCTGAGTCCAAGCTAGGCCCTTTTGCTAATCATGTTCATACCTCTTATCTTCCTCCCACAGCTCCTGGGCAACGTGCTGGTCTGTGTGCTGGCCCATCACTTTGGCAAAGAATTGGCTAGCCACACACACAAATCTGGGGAGGTGAAGAATACGACCACCTGCGTTTTATACTTCCGCGAGATCTGGGGAGGTGAAGAATACGACCACCTAATAAGATTACCGAAAGGCAATCTTATTAAAACATACCAGATCTTGCGAGGGTGTTTGTGGCAAAACATACCAGATCGAATTCGATCTGGGGAGGTGAAGAATACGACCACCTGCTACAAGTACCTAATAAAGTATAAAGTGCAAAACATACCAGATCTGTGTGTTGGTTTTTTGTGTGTTAACGGGGGAGGGGGAGGAAAGGGGGAGGGGGAGGAAAGGGGGAGGGGGAGGAAAGGGGGAGGGGGAGCGGCCGCCAACAACAACAACAACAACAACAACAACAACAACAACAACATAACAGTGTTCACTAGCAACCTCAAACAGACACCATG
For the molecule B4, the “effect on induction” value in series [1] was “higher induction”.
